Measurements as given in the DeepSol protein solubility set.

Experiment: soluble on expression in E. coli; label from the status in PepcDB or PDB records

Sequence | soluble on expression in E. coli
EVQLQESGPSLVKPSQTLSLTCSVTGEPITSGFWDWIRKFPGNKLEFMGYIRYGGGTYYNPSLKSPISITRDTSKNHYYLQLNSVVTEDTATYYCARSRDYYGSSGFAFWGEGTLVTVSAAKTTPPSVYPLAPGCGDTTGSSVTLGCLVKGYFPESVTVTWNSGSLSSSVHTFPALLQSGLYTMSSSVTVPSSTWPSQTVTCSVAHPASSTTVDKKLE | soluble
VAVNNISNLINSRIRLTGISSGLDTDAIIEQLMSVERAKVDKIKQEKQILEWKRDIYRDIINKLRSITDEYFNVLKPKTNFTSQSAFTSFKISSSNESVVTVTANASAASKVHSITVHSLASAAKIVGTSGLVDGIKGSNAVNTLSLQGKEINVTLDGVTKTIALEDYTSLSDLETKLESALAKAFGTGKIDVVTTGGSIEFKCLLNGSTLSISDTANNYISSLGFSNGQKNFITGNSDVNSDFSLYTDGSFKITVGNGTAQTINISDATSIDDLVAKIQQAIDSNSELSGKVHVSNDGSKLTFISVSGETVKLTSGDSNNVLDKLGFSDGATITATSSTVIDLSGNEKGKTFIININGVDKIIEIDKDYNDLDELASYIQNQLGGTVNVTKDASGSRLVFSTGGADRLIFKKGPEDGLEKLGFTANDNRSNRISLTTKLDSLSTIFKNDLNIADPDANVVFTINGQTIDVGKTYANATLSDVMNAINSSSAGVKITYDSLNDRFIMESKTMGATSEIELTDTDPANGLLKAMGLIGGTYTAGTDAEFDLDGVTGMKRSTNEFTIEGVTYSLKGVSSEPVKIDVKADIDAVVENIKNFVNSYNEMLAKINSVLTEERYRDYLPLTDDQKKAMSEDDIKLWEQKAKSGLLRSDSILENIVTNLRRALYDKVEGCSLSLYQIGITTGSYQDKGKLVIDEEKLRAALTDNYDAVVQLFTQGSQYTYSEALNDPNKRAVRYKEAGIAQRIYDILQDNIRITRNANGKKGILLEKAGIAGDLTEYDNLIVNEIKAKETLIDEMLVKIYKKEEYYYSKFAAMEKMLDAMNSQSMWLTQQFSNYY | soluble
MSQWYELQQLDSKFLEQVHQLYDDSFPMEIRQYLAQWLEKQDWEHAANDVSFATIRFHDLLSQLDDQYSRFSLENNFLLQHNIRKSKRNLQDNFQEDPIQMSMIIYSCLKEERKILENAQRFNQAQSGNIQSTVMLDKQKELDSKVRNVKDKVMCIEHEIKSLEDLQDEYDFKCKTLQNREHETNGVAKSDQKQEQLLLKKMYLMLDNKRKEVVHKIIELLNVTELTQNALINDELVEWKRRQQSACIGGPPNACLDQLQNWFTIVAESLQQVRQQLKKLEELEQKYTYEHDPITKNKQVLWDRTFSLFQQLIQSSFVVERQPCMPTHPQRPLVLKTGVQFTVKLRLLVKLQELNYNLKVKVLFDKDVNERNTVKGFRKFNILGTHTKVMNMEESTNGSLAAEFRHLQLKEQKNAGTRTNEGPLIVTEELHSLSFETQLCQPGLVIDLETTSLPVVVISNVSQLPSGWASILWYNMLVAEPRNLSFFLTPPCARWAQLSEVLSWQFSSVTKRGLNVDQLNMLGEKLLGPNASPDGLIPWTRFCKENINDKNFPFWLWIESILELIKKHLLPLWNDGCIMGFISKERERALLKDQQPGTFLLRFSESSREGAITFTWVERSQNGGEPDFHAVEPYTKKELSAVTFPDIIRNYKVMAAENIPENPLKYLYPNIDKDHAFGKYYSR | soluble
MPTENELKIYLKRWDKKYGLTYKVLDILQTVFYRSDATREAFVEMCGDLDVQKLTFDSYLYKTVVPANPITQLKITAKTIGSLIRGNALAPLEHHHHHH | not soluble
MLKVKKEVLEKMIKQAERDYPYETCGLLIGKSEGGIRIAYEAFETPNANPDRKHDRYEIAPKDYMRAEDYAISKGMEIVGVYHSHPDHPDRPSQFDLQRAFPDLSYIIFSVQKGKVASYRSWELKGDKFEEEEVEVFE | not soluble
MSLSLEERERAVELYFTTPMTTAQVVEHLGYPTRQCLERWLAMDSRYAGHMAKPIIPLETRRRAVELVLGGMQQKQAAKQLGVSVGAVHGWVRAYRKGGMAALQPKNRNSAQGNKPADSRRRPSAADDDDAEALRRRVEELELENALMREVVEVVKKDPGADLRRLSNREKTLLIDRLRPAYSLRSMTCLLAIAPSSYHYHHARLGVDKYAGLRAEVAGAFADSKGRYGYRRIKAVLKTGVSEKVVRRIMAEEGLVAHVPKRRRYSSYEGETTPAPANLVDRDFTAERPNEKWLTDISEIKARDGKVYLSPMIDCFDGKIVAYTAGFSPNAELANRMLEKAASTLPGNARPLVHSDRGCHYRWPGWLGLMERFGLTRSMSAKGCSPDNAAAEGFFGRMKTESVYPEHWEKRTRDEVLILIDDYIRWYNHERIKRSLGWMSPVQYRQSQGMAEGHHHHHH | not soluble
MRLLHTMLRVGDLQRSIDFYTKVLGMKLLRTSENPEYKYSLAFVGYGPETEEAVIELTYNWGVDKYELGTAYGHIALSVDNAAEACEKIRQNGGNVTREAGPVKGGTTVIAFVEDPDGYKIELIEEKDAGRGLGN | soluble
MAHHHHHHMAPGVIPTVFRSERDREWAAQRFNYKKGSDDEERVARKRLLFARDRVHLPDDTVVETIRSPTEQLEELRALREHPPMHLLSEQLNSIAEESHRYAAALAAAAAAQPADPKDVASPASLRSDAAATSSLDGVALPPLPGAAAVVSSPPQVEIQFEDRSLFATAAILFRDRDDRVVRAMRFIGACGMVWKEVA | soluble
MFKLVGKEAFKVGDMKCIINVEALGTFAYEYSLDVNGKTFNKFKEEQNKRLHSWETTLSGHQWRVVLDKESMEIWANGNNIDTAGEFVDNGTVTHFELGKNPCKIIAQSSGKKKTGVTHTLYVNGEIVPSTVDKPNPSNQPGSS | not soluble
MTEKLAVFTGKLAEAGVLNETQPLSMRLHLENIQAESDPESIVPLFSHGVILNILVEQLEESIPLSHLKKGTKVRFTVVGLPPMTMSIPPHVGGQAIELIEEI | not soluble
GPLGSAAAATPAVRTVPQYKYAAGVRNPQQHLNAQPQVTMQQPAVHVQGQEPLTASMLASAPPQEQKQMLGERLFPLIQAMHPTLAGKITGMLLEIDNSELLHMLESPESLRSKVDEAVAVLQAHQAKEAAQKAVNSATGVPTV | soluble
MAMVIPARNQMASQFLELPKRTSSLMAPTMVLQGHGGEIYTSQFSSDGSFLASAGYDQQIFLWNVFGECENFAVLKGHKGAIMEVKFNADSSHLVSAGTDKTVRVWDMETGSCIRNFKSHTDIVNSVDVNRRGPQMICSASDDGTVMVHDMRSKEAAKKFICKYQQTAVTFNDAADNVICGGIDNQIKVWDMLRNDVRYVLSGHRDTITSLSVSHNGNFLLSNSMDCSLMSWDIRPFVPAQRLVARYQGASHNFEKNLLKCGWSPRDNYITAGSADRFVYVWNAKSRACVYKLPGHLGSVNCTALHPTQQILLSAGSDKTIFLGELDLEDY | not soluble
SNAMRVLTGLQPSGDLHIGNYFGAIKQMVDAQEKSQMFMFIANYHAMTSSQDGEKLKQNSLKAAAAFLSLGIDPQKSVFWLQSDVKEVMELYWILSQFTPMGLLERAHSYKDKVAKGLSASHGLFSYPVLMAADILLFDTRIVPVGKDQIQHVEIARDIALKVNNEWGEIFTLPEARVNEEVAVVVGTDGAKMSKSYQNTIDIFSSEKTLKKQISSIVTDSTALEDPKDHENCNIFKIAKLFLDESGQKELQIRYEKGGEGYGHFKIYLNELVNAYFKEAREKYNELLEKPSHLKEILDFGATKARKIAQEKMQKIYEKIGL | soluble
SMRKFGVVVVGVGRAGSVRMRDLRNPHPSSAFLNLIGFVSRRELGSIDGVQQISLEDALSSQEVEVAYICSESSSHEDYIRQFLNAGKHVLVEYPMTLSLAAAQELWELAEQKGKVLHEEHVELLMEEFAFLKKEVVGKDLLKGSLLFTAGPLEEERFGFPAFSGISRLTWLVSLFGELSLVSATLEERKEDQYMKMTVCLETEKKSPLSWIEEKGPGLKRNRYLSFHFKSGSLENVPNVGVNKNIFLKDQNIFVQKLLGQFSEKELAAEKKRILHCLGLAEEIQKYCCSRK | soluble
MSLASIDFRNKINWHRRYRSPQGVKTEHEILRIFESDRGRIINSPAIRRLQQKTQVFPLERNAAVRTRLTHSMEVQQVGRYIAKEILSRLKEQDRLEEYGLDALTGPFESIVEMACLMHDIGNPPFGHFGEAAINDWFRQRLHPEDAESQPLTHDRCVVSSLRLQEGEENLNDIRRKVRQDICHFEGNAQGIRLVHTLMRMNLTWAQVGGILKYTRPAWWRGPVPDSHRYLMKKPGYYLSEEKYIARLRKELQLAPYSRFPLTWIMEAADDISYCVADLEDAVEKRIFSVEQLYHHLYHAWCHHEKDSLFELVVGNAWEKSRANTLSRSTEDQFFMYLRVNTLNKLVPYAAQRFIDNLPQIFAGTFNQALLEDASGFSRLLELYKNVAVEHVFSHPDVEQLELQGYRVISGLLDIYQPLLSLSLNDFRELVEKERLKRFPIESRLFQKLSTRHRLAYVEVVSKLPTDSAEYPVLEYYYRCRLIQDYISGMTDLYAWDEYRRLMAVEQEGHHHHHH | soluble
MPPRMSVAPERALIDVDREIRIDGFGPYACIDVTAEMRMCGVPWRSRATFLAGADGSLDLGRDSPVSGDYAEPDAMGLVWSMQCQDPPRAVFPPDRTDALTVHITASDGRHEAHATLVQEFLAEGVRHQAVRARAGGMSLSGELYTPP | not soluble
MKNNNLSDARKEKGLTQQELAEKLQVRKSTVSNWETGYSSPGISTAIQTAIILDKDVSFLFGNKVQETHTRVRD | not soluble
MSLSRLSEKKGFNFNIIKNDPLDGHKGTNIGSISLDNIAPVFIDIENQKAFVDIGGMHARAEVEKGVKWITDKSQVEGEEAKAYWLCWVTTERSEQGPYYAGVTACYLLVNKSIRRGYKSMPEHVNMMDKSMKHQFIIDQIGDDNKQILKEFLQNHNVEMWNNSSEELYRTFEEGHHHHTTDPNSSSVDKLAAALEHHHHHH | soluble
MSLAKSYNAGINIIPTPRSLEKREGSFKLSDGVSIGAITPEAKKIATYFAAKISLATGYDVKVEDKGEITLVLDSCATFSPEGYALDVESSRVQVTACSPRGLFYGMQSFLQLLPAEIESAGIVRDVDWEAPAANIIDSPRFAYRGIHMDPCRHFMTVEEVKKQIDVLSMFKINTIHWHLTDDQGWRIEIKQYPGLAEIGGRRIEGEGVEYGPFYYTQEEIKDIVSYAAERFITIIPELEIPGHELAAISAYPGLSCKGDPVTPRNIWGVEDIVMCPGKESVFTFLENVIDEMVALFPGTYFHIGGDECPKESWKSCPLCQKRILEEGIKPDGKHTSEQLLHTYVVERIGKYLARYDKKIIGWDEILEGKPDSTATIMSWRGDAGGISAALSGHDAIMSPGPNGLYLDYYQGDSKIEPIAIGGCSTLEKVYNYNPVPDTLVLIGKDHHIIGVQANNWSEYFYNNDIREYHMYPRSLALAEVAWTDAKRKNYVDFERRINNAYVRLDGHGVNYHIPLPEQPGGSCDHIAFTDSVSLEFTTSRPISLVYTLDGTEPGVSSEIYTSPLSFYQNGILKIASLLSSGKLSKVRTIQIEKQVLLPAVDVEGSFHGLNMEVTYGMFLNMQEFMKTGKSVDVSTDIRETGELTSFVPSTNSMRDVRQYAAVATGFIDIPENGEGHHHHHH | not soluble
MGSDKIHHHHHHMRLGVNEAVELSLGELQNTPSISYFNSIVLSLNKVQKGSLFVAKDHTLIPKALELGAYGILYTGEYPVSDRDVAWIKLKDIEHSLNHLFKFCLLNERVVGALLSPIELEIASKIMVSNFVWCLKESLEDLFIIEGCKIAFFDKLEWLHLFYKQEHLKEDLKESCLIILNQSFFCSALVYEKQEYEFKMPCIFLGSLKRVIQLCEKLQIEFDLNLLGKKEYPLDHCKPFFVNKNLEIAPYGTTARVIVAETSKELFEMMLQKAFEILSWGKIVVFCRKNSAAFFKKTNPYFYTTQNNLKEQLKNLAFNFAFIHGISSHHLESLLNPPFFKKTPTLW | not soluble
MNMANVKIKIRDGLIDRLRNMSGITSDEAFARTIGTSRSTLVDVKTGEREPSLAFAIGIAQAFGLGLSEIVTWETETTAA | not soluble
